Results from the Human Domainome abundance scans (Beltran et al. 2025).
± gives the uncertainty stated by the source.

B1: Ankyrin repeat and SAM domain-containing protein 6, residues 774 to 836; numbered along this chain, Q68DC2 (parent)
chain: DEDELTGILKKLSLEKYQPIFEEQEVDMEAFLTLTDGDLKELGIKTDGSRQQILAAISELNAG

Variants of: B1
Assay: abundance fitness (aPCA) (normalised: wild type 0, dead -1); higher = more abundant; growth selection in yeast, the domain comes from the species named
Conditions: Homo sapiens
For L32R, the abundance fitness was 0.039 ± 0.043. L32E showed an abundance fitness of -0.271 ± 0.071. L32Y gave an abundance fitness of -0.334 ± 0.073. With L32A the abundance fitness was -0.097 ± 0.055. L32M showed an abundance fitness of -0.083 ± 0.065. In the case of L32I, the abundance fitness is reported as -0.181 ± 0.042. Work on L32G yielded an abundance fitness of -0.251 ± 0.048. Variant L32V has an abundance fitness of -0.103 ± 0.049. In the case of L32K, the abundance fitness is reported as 0.264 ± 0.059. In the case of L32N, the abundance fitness is reported as -0.295 ± 0.071. For L32P, the abundance fitness was -0.199 ± 0.056. In the case of L32W, the abundance fitness is reported as -0.536 ± 0.058. Work on L32T yielded an abundance fitness of -0.157 ± 0.06. For L32D, the abundance fitness was -0.408 ± 0.068. For E29D, the abundance fitness was -0.107 ± 0.05. Work on E29C yielded an abundance fitness of -0.338 ± 0.065. With E29K the abundance fitness was 0.099 ± 0.039. In the case of E29Y, the abundance fitness is reported as -0.417 ± 0.086. With E29H the abundance fitness was -0.356 ± 0.13. E29P showed an abundance fitness of -0.105 ± 0.056. E29F showed an abundance fitness of -0.648 ± 0.097. Variant E29G has an abundance fitness of -0.162 ± 0.047. For E29T, the abundance fitness was -0.123 ± 0.046. For E29S, the abundance fitness was -0.228 ± 0.043. Variant E29Q has an abundance fitness of -0.097 ± 0.049. E29A gave an abundance fitness of -0.025 ± 0.046. Work on E29M yielded an abundance fitness of -0.318 ± 0.075. E29N showed an abundance fitness of -0.32 ± 0.22. Work on E29V yielded an abundance fitness of -0.334 ± 0.051. E29L gave an abundance fitness of -0.51 ± 0.046. For D38I, the abundance fitness was -1.12 ± 0.11. Work on D38F yielded an abundance fitness of -1.28 ± 0.2. D38L showed an abundance fitness of -1.16 ± 0.076. D38N showed an abundance fitness of -0.2 ± 0.081. Work on D38S yielded an abundance fitness of -0.232 ± 0.042. D38G showed an abundance fitness of -0.273 ± 0.046. With D38C the abundance fitness was -0.773 ± 0.091. D38M gave an abundance fitness of -0.611 ± 0.099. D38H gave an abundance fitness of -0.418 ± 0.076. In the case of D38T, the abundance fitness is reported as -0.369 ± 0.056. For D38K, the abundance fitness was -0.188 ± 0.11. For D38E, the abundance fitness was -0.072 ± 0.069. Variant D38Q has an abundance fitness of -0.165 ± 0.1. Work on D38P yielded an abundance fitness of -0.645 ± 0.063. Work on D38R yielded an abundance fitness of -0.074 ± 0.038. Variant D38A has an abundance fitness of -0.49 ± 0.051. For G37L, the abundance fitness was -0.049 ± 0.039. Variant G37S has an abundance fitness of -0.058 ± 0.049. G37H gave an abundance fitness of -0.087 ± 0.09. With G37F the abundance fitness was -0.051 ± 0.066. G37P gave an abundance fitness of -0.035 ± 0.051. G37K gave an abundance fitness of 0.033 ± 0.054. Work on G37V yielded an abundance fitness of -0.028 ± 0.038. G37T gave an abundance fitness of -0.064 ± 0.068. Work on G37Y yielded an abundance fitness of -0.138 ± 0.086. In the case of G37R, the abundance fitness is reported as -0.111 ± 0.057. Variant G37C has an abundance fitness of -0.269 ± 0.087. For G37W, the abundance fitness was -0.331 ± 0.068. G37N gave an abundance fitness of -0.095 ± 0.099. Variant G37D has an abundance fitness of 0.117 ± 0.1. In the case of G37A, the abundance fitness is reported as 0.004 ± 0.05. Work on G37E yielded an abundance fitness of -0.001 ± 0.072. L34T gave an abundance fitness of -0.556 ± 0.073. Variant L34N has an abundance fitness of -0.483 ± 0.15. With L34I the abundance fitness was -0.627 ± 0.2. Variant L34S has an abundance fitness of -0.457 ± 0.057. L34H gave an abundance fitness of -0.356 ± 0.086. In the case of L34F, the abundance fitness is reported as -0.298 ± 0.14. For L34R, the abundance fitness was -0.523 ± 0.051. In the case of L34G, the abundance fitness is reported as -0.551 ± 0.052. In the case of L34A, the abundance fitness is reported as -0.403 ± 0.06. In the case of L34E, the abundance fitness is reported as -0.526 ± 0.071. Work on L34W yielded an abundance fitness of -0.657 ± 0.039. L34Y gave an abundance fitness of -0.095 ± 0.12. L34C showed an abundance fitness of -0.459 ± 0.079. L34K gave an abundance fitness of -0.309 ± 0.064. Work on L34P yielded an abundance fitness of -0.561 ± 0.078. L34M showed an abundance fitness of 0.038 ± 0.083. For L34D, the abundance fitness was -0.654 ± 0.12. Variant L34V has an abundance fitness of -0.345 ± 0.065. F31I gave an abundance fitness of -0.343 ± 0.058. With F31D the abundance fitness was -0.51 ± 0.056. F31M gave an abundance fitness of -0.329 ± 0.07. F31A gave an abundance fitness of -0.37 ± 0.05. Work on F31W yielded an abundance fitness of -0.432 ± 0.066. F31R showed an abundance fitness of -0.426 ± 0.047. Variant F31K has an abundance fitness of -0.362 ± 0.064. F31V gave an abundance fitness of -0.342 ± 0.05. With F31C the abundance fitness was -0.797 ± 0.11. F31G gave an abundance fitness of -0.443 ± 0.044. Variant F31L has an abundance fitness of -0.305 ± 0.063. For F31S, the abundance fitness was -0.513 ± 0.056. Variant F31H has an abundance fitness of -0.586 ± 0.088. F31P showed an abundance fitness of -0.469 ± 0.07. For F31N, the abundance fitness was -0.441 ± 0.07. F31Y showed an abundance fitness of -0.563 ± 0.068. F31T showed an abundance fitness of -0.638 ± 0.058. Work on F31E yielded an abundance fitness of -0.384 ± 0.062. A30R gave an abundance fitness of 0.096 ± 0.035. With A30V the abundance fitness was -0.093 ± 0.047. With A30D the abundance fitness was -0.273 ± 0.063. In the case of A30L, the abundance fitness is reported as -0.089 ± 0.048. With A30N the abundance fitness was -0.049 ± 0.068. A30K gave an abundance fitness of 0.001 ± 0.065. With A30E the abundance fitness was -0.073 ± 0.062. A30Y gave an abundance fitness of -0.218 ± 0.074. Work on A30F yielded an abundance fitness of -0.246 ± 0.072. For A30T, the abundance fitness was -0.125 ± 0.055. Variant A30I has an abundance fitness of -0.164 ± 0.081. A30W gave an abundance fitness of -0.464 ± 0.06. A30M gave an abundance fitness of -0.075 ± 0.06. A30C showed an abundance fitness of -0.02 ± 0.084. A30P gave an abundance fitness of -0.784 ± 0.088. In the case of A30S, the abundance fitness is reported as -0.015 ± 0.044. A30H gave an abundance fitness of 0.037 ± 0.06. With T35V the abundance fitness was -0.687 ± 0.045. T35M gave an abundance fitness of -0.65 ± 0.074. Variant T35W has an abundance fitness of -0.879 ± 0.099. Variant T35G has an abundance fitness of -0.199 ± 0.05. Variant T35S has an abundance fitness of 0.037 ± 0.06. Work on T35C yielded an abundance fitness of -0.363 ± 0.085. Variant T35F has an abundance fitness of -0.779 ± 0.26. For T35L, the abundance fitness was -0.932 ± 0.053. T35D gave an abundance fitness of 0.037 ± 0.091. Variant T35R has an abundance fitness of -0.057 ± 0.041. T35I gave an abundance fitness of -0.695 ± 0.11. In the case of T35E, the abundance fitness is reported as -0.067 ± 0.048. Variant T35H has an abundance fitness of -0.302 ± 0.082. Variant T35A has an abundance fitness of -0.377 ± 0.045. T35Q showed an abundance fitness of -0.026 ± 0.056. With T35N the abundance fitness was -0.078 ± 0.064. Variant D36G has an abundance fitness of -0.405 ± 0.066. With D36C the abundance fitness was -0.487 ± 0.082. In the case of D36V, the abundance fitness is reported as -0.571 ± 0.055. D36T showed an abundance fitness of -0.532 ± 0.054. Work on D36M yielded an abundance fitness of -0.441 ± 0.046. In the case of D36F, the abundance fitness is reported as -1.02 ± 0.092. D36H gave an abundance fitness of -0.584 ± 0.078. Variant D36S has an abundance fitness of -0.392 ± 0.044. Work on D36N yielded an abundance fitness of -0.252 ± 0.084. Variant D36K has an abundance fitness of -0.449 ± 0.06. D36Q showed an abundance fitness of -0.565 ± 0.072. For D36L, the abundance fitness was -0.702 ± 0.046. Variant D36E has an abundance fitness of -0.051 ± 0.069. With D36R the abundance fitness was -0.72 ± 0.05. For D36I, the abundance fitness was -0.642 ± 0.086. In the case of M28Y, the abundance fitness is reported as -0.106 ± 0.07. Work on M28V yielded an abundance fitness of -0.219 ± 0.054. M28T showed an abundance fitness of 0.007 ± 0.053. With M28S the abundance fitness was -0.094 ± 0.054. In the case of T33G, the abundance fitness is reported as -0.057 ± 0.041. With T33Q the abundance fitness was -0.071 ± 0.073. For T33F, the abundance fitness was -0.642 ± 0.17. Variant T33Y has an abundance fitness of -0.496 ± 0.13. For T33R, the abundance fitness was 0.048 ± 0.032. T33P showed an abundance fitness of -0.712 ± 0.074. Variant T33D has an abundance fitness of -0.122 ± 0.071. Work on T33N yielded an abundance fitness of -0.053 ± 0.098. In the case of T33V, the abundance fitness is reported as -0.215 ± 0.043. Variant T33A has an abundance fitness of -0.037 ± 0.053. In the case of T33S, the abundance fitness is reported as -0.023 ± 0.042. Variant T33M has an abundance fitness of -0.048 ± 0.098. T33W gave an abundance fitness of -0.49 ± 0.055. T33K gave an abundance fitness of 0.141 ± 0.05. Variant T33E has an abundance fitness of -0.032 ± 0.095. In the case of T33H, the abundance fitness is reported as -0.012 ± 0.21. Variant T33I has an abundance fitness of -0.507 ± 0.15.
